Drawing on the supplement of paper PMC10567573, this text covers protein stability index for 83 variants.

To fix the notation:
B1: ZER1 (parent)
chain: FDGPEAWGVCEPQREEVEERMWAA
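Note: lentivirally expressed fusions sorted by FACS into six bins by GFP to DsRed ratio, PSI derived from sequencing read proportions per bin multiplied by bin number.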

Variants of B1 are the subject of the series. The series can be described thus: protein stability index of a GFP-peptide fusion (GPS, HEK-293T) (PSI 1-6); higher = more stable. The settings on record: c terminus: a fixed tail appended.
Take FDGPEAWGVCEPQREEHEERMWAA [V17H]: the protein stability index was found to be 2.77.
The figure for FDGPEAWGVCEPQREETEERMWAA [V17T] is 2.47; for FDGPEAWGVCEPQREEAEERMWAA [V17A] it is 2.27; for FDGPEAWGVCEPQREEDEERMWAA [V17D] it is 2.61.
Turning to FDGPEAWGVCEPQREELEERMWAA [V17L], the protein stability index is 2.34.
Regarding FDGPEAWGVCEPQREEFEERMWAA [V17F], the protein stability index was determined as 3.62.
The figure for FDGPEAWGVCEPQREEGEERMWAA [V17G] is 2.36; for FDGPEAWGVCEPQREEEEERMWAA [V17E] it is 3.18.
The figure for FDGPEAWGVCEPQREEWEERMWAA [V17W] is 2.44; for FDGPEAWGVCEPQREENEERMWAA [V17N] it is 3.28.
The figure for FDGPEAWGVCEPQREEMEERMWAA [V17M] is 2.26; for FDGPEAWGVCEPQREEIEERMWAA [V17I] it is 2.26.
For the variant FDGPEAWGVCEPQREEYEERMWAA [V17Y], the protein stability index stood at 2.75.
The figure for FDGPEAWGVCEPQREEPEERMWAA [V17P] is 2.65.
In the case of FDGPEAWGVCEPQREECEERMWAA [V17C], the protein stability index is 2.3.
The figure for FDGPEAWGVCEPQREEKEERMWAA [V17K] is 2.41; for FDGPEAWGVCEPQREEQEERMWAA [V17Q] it is 2.55.
The figure for FDGPEAWGVCEPQREESEERMWAA [V17S] is 2.64; for FDGPEAWGVCEPQREEREERMWAA [V17R] it is 2.24.
The figure for FDGPEAWGVCEPQREEVEERMPAA [W22P] is 3.57; for FDGPEAWGVCEPQREEVEERMRAA [W22R] it is 3.59; for FDGPEAWGVCEPQREEVEERMAAA [W22A] it is 2.79.
Consider FDGPEAWGVCEPQREEVEERMCAA [W22C], for which the protein stability index turned out to be 3.17.
Take FDGPEAWGVCEPQREEVEERMVAA [W22V]: the protein stability index came to 3.44.
Take FDGPEAWGVCEPQREEVEERMDAA [W22D]: the protein stability index was 3.75.
FDGPEAWGVCEPQREEVEERMYAA [W22Y]: the protein stability index was 3.73.
The figure for FDGPEAWGVCEPQREEVEERMQAA [W22Q] is 2.73; for FDGPEAWGVCEPQREEVEERMGAA [W22G] it is 2.81.
The figure for FDGPEAWGVCEPQREEVEERMFAA [W22F] is 2.57; for FDGPEAWGVCEPQREEVEERMKAA [W22K] it is 2.75.
Regarding FDGPEAWGVCEPQREEVEERMSAA [W22S], the protein stability index turned out to be 3.25.
The figure for FDGPEAWGVCEPQREEVEERMTAA [W22T] is 3.4; for FDGPEAWGVCEPQREEVEERMMAA [W22M] it is 2.61.
Regarding FDGPEAWGVCEPQREEVEERMEAA [W22E], the protein stability index is 3.79.
The figure for FDGPEAWGVCEPQREEVEERMLAA [W22L] is 2.42.
The figure for FDGPEAWGVCEPQREEVEERMIAA [W22I] is 2.63; for FDGPEAWGVCEPQREEVEERMHAA [W22H] it is 2.62; for FDGPEAWGVCEPQREEVEERMNAA [W22N] it is 3.17.
With FDGPEAWGVCEPQREEVEERMWAG [A24G], the protein stability index is 3.03.
The figure for FDGPEAWGVCEPQREEVEERMWAK [A24K] is 2.78; for FDGPEAWGVCEPQREEVEERMWAS [A24S] it is 2.7.
The figure for FDGPEAWGVCEPQREEVEERMWAV [A24V] is 2.53; for FDGPEAWGVCEPQREEVEERMWAT [A24T] it is 2.49; for FDGPEAWGVCEPQREEVEERMWAE [A24E] it is 2.64.
The figure for FDGPEAWGVCEPQREEVEERMWAP [A24P] is 3.05; for FDGPEAWGVCEPQREEVEERMWAC [A24C] it is 3.55.
With FDGPEAWGVCEPQREEVEERMWAF [A24F], the protein stability index was 1.96.
With FDGPEAWGVCEPQREEVEERMWAM [A24M], the protein stability index is 2.51.
For FDGPEAWGVCEPQREEVEERMWAY [A24Y], the protein stability index came out at 2.49.
Turning to FDGPEAWGVCEPQREEVEERMWAH [A24H], the protein stability index was 2.56.
The figure for FDGPEAWGVCEPQREEVEERMWAW [A24W] is 2.15; for FDGPEAWGVCEPQREEVEERMWAI [A24I] it is 2.13.
For FDGPEAWGVCEPQREEVEERMWAL [A24L], the protein stability index came out at 2.98.
Consider FDGPEAWGVCEPQREEVEERMWAN [A24N], for which the protein stability index is 2.76.
The figure for FDGPEAWGVCEPQREEVEERMWAQ [A24Q] is 2.86; for FDGPEAWGVCEPQREEVEERMWAD [A24D] it is 2.88.
On to FDGPEAWGVCEPQREEVEERMWAR [A24R], for which the protein stability index is 2.76.
Take FDGPEAWGVCEPQREEVEERMWWA [A23W]: the protein stability index was 2.3.
On to FDGPEAWGVCEPQREEVEERMWNA [A23N], for which the protein stability index was 2.93.
The figure for FDGPEAWGVCEPQREEVEERMWGA [A23G] is 2.9.
The figure for FDGPEAWGVCEPQREEVEERMWPA [A23P] is 2.66; for FDGPEAWGVCEPQREEVEERMWHA [A23H] it is 2.58.
The figure for FDGPEAWGVCEPQREEVEERMWSA [A23S] is 2.62.
Consider FDGPEAWGVCEPQREEVEERMWFA [A23F], for which the protein stability index stood at 2.16.
The figure for FDGPEAWGVCEPQREEVEERMWLA [A23L] is 2.23; for FDGPEAWGVCEPQREEVEERMWEA [A23E] it is 2.44.
Consider FDGPEAWGVCEPQREEVEERMWKA [A23K], for which the protein stability index came out at 2.77.
In the case of FDGPEAWGVCEPQREEVEERMWTA [A23T], the protein stability index was 2.67.
The figure for FDGPEAWGVCEPQREEVEERMWIA [A23I] is 2.64.
Take FDGPEAWGVCEPQREEVEERMWCA [A23C]: the protein stability index was found to be 2.46.
Regarding FDGPEAWGVCEPQREEVEERMWMA [A23M], the protein stability index turned out to be 3.08.
Regarding FDGPEAWGVCEPQREEVEERMWYA [A23Y], the protein stability index was 2.04.
Turning to FDGPEAWGVCEPQREEVEERMWQA [A23Q], the protein stability index came to 2.61.
Consider FDGPEAWGVCEPQREEVEERMWDA [A23D], for which the protein stability index turned out to be 3.41.
Turning to FDGPEAWGVCEPQREEVEERMWVA [A23V], the protein stability index came to 2.47.
For the variant FDGPEAWGVCEPQREEVEERMWRA [A23R], the protein stability index was found to be 2.61.
The figure for FDGPEAWGVCEPQREEVGERMWAA [E18G] is 3.36; for FDGPEAWGVCEPQREEVAERMWAA [E18A] it is 2.27.
The figure for FDGPEAWGVCEPQREEVKERMWAA [E18K] is 1.57; for FDGPEAWGVCEPQREEVFERMWAA [E18F] it is 2.5.
The figure for FDGPEAWGVCEPQREEVIERMWAA [E18I] is 2.21.
FDGPEAWGVCEPQREEVSERMWAA [E18S]: the protein stability index amounted to 2.52.
Regarding FDGPEAWGVCEPQREEVHERMWAA [E18H], the protein stability index was 3.04.
